Laboratory results: paper PMC8420766, “Crystal structure of a MarR family protein from the psychrophilic bacterium Paenisporosarcina sp. TG-14 in complex with a lipid-like molecule” (IUCrJ, 2021)
One block for each molecule: values may come before it.

Columns and labels:
PaMarR [1] = molecular target: T1, PaMarR (Paenisporosarcina sp. TG-14, UniProt A0A8J9SKQ8); assay: X-ray crystal structure; type: binding; details: 1.6 A; co-purified from expression culture, not added; identity assigned from electron density; deep cavity in dimerization domain (helices a1, a6, a7), putative effector site; ammonium citrate pH 7.0
T1 construct: gene E2636_00495; N-terminal His6 tag (pET-28a(+), NdeI/XhoI) removed with thrombin; E. coli BL21(DE3); gene primer start TTGGATAAGAGAATAC (N-terminus M/L-DKRI)

[2] = molecular target: MarR protein from Paenisporosarcina sp. TG-14 (Paenisporosarcina sp. TG-14); assay: AUC; analytical ultracentrifugation at 40 000 rev/min, 20°C, detection at 280 nm, analysed with SEDFIT; one peak at a sedimentation coefficient of about 2.5 (31.3 kDa)
PaMarR [3] = molecular target: T2, PaMarR (Paenisporosarcina sp. TG-14, UniProt A0A8J9SKQ8 1-147); assay: EMSA; 0.3-2.1 uM PaMarR, 0.5 uM duplex; B1 (one site) at low, B2 (both sites) at high protein; protein contains palmitate; EMSA: Dulbecco's PBS, 12% (v/v) glycerol, 0.5 uM duplex, 15 min at 37 C, 20 ul; 8% native PAGE with 5% glycerol in Tris-borate; pH not stated; details: protein: recombinant; tags: N-terminal His6 (pET-28a NdeI/XhoI), removed with thrombin; chain copies: 2; label: none (GelRed stain); as printed: 52 bp duplex, 3' overhang 13 nt on strand 1 (second strand may be printed incompletely; Methods say complementary oligos)
T2 sequence: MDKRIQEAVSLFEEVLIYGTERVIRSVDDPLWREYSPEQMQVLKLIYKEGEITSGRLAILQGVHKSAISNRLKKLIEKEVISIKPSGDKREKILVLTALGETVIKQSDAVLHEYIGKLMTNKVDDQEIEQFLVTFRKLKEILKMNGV

Molecule: CCCCCCCCCCCCCCCC(=O)O [palmitic acid]
X-ray crystal structure (PaMarR [1]): a model of palmitic acid containing a 16-carbon chain was built, which had the best fit

stoichiometry N [2]: 2
Molecule: MarR protein from Paenisporosarcina sp. TG-14 (natural protein)

B1: Palindrome probe (putative binding sites 1 and 2) (dsDNA)
DNA 1: TTTTAATAGTTCACCCCCTAAACTAACGTTATTGGTTTAGGGGGTGAACTATTATGCCCCCCATA
DNA 2: ATAGTTCACCCCCTAAACCAATAACGTTAGTTTAGGGGGTGAACTATTAAAA
binding result (PaMarR [3]): binds
